The text below walks through data of US12529705 (dated 2026).

This test deals with T1, full-length protein LRP8 expressed in N2A cells transfected with a cDNA coding for LRP8 (Origene, Cat. No. … (human, UniProt Q14114 33-963)).
T1 construct: Tested as a lysate of transfected N2A cells in SDS-PAGE and Western blot, not on intact cells; also called LRP8-FL; APOER2
T1 sequence: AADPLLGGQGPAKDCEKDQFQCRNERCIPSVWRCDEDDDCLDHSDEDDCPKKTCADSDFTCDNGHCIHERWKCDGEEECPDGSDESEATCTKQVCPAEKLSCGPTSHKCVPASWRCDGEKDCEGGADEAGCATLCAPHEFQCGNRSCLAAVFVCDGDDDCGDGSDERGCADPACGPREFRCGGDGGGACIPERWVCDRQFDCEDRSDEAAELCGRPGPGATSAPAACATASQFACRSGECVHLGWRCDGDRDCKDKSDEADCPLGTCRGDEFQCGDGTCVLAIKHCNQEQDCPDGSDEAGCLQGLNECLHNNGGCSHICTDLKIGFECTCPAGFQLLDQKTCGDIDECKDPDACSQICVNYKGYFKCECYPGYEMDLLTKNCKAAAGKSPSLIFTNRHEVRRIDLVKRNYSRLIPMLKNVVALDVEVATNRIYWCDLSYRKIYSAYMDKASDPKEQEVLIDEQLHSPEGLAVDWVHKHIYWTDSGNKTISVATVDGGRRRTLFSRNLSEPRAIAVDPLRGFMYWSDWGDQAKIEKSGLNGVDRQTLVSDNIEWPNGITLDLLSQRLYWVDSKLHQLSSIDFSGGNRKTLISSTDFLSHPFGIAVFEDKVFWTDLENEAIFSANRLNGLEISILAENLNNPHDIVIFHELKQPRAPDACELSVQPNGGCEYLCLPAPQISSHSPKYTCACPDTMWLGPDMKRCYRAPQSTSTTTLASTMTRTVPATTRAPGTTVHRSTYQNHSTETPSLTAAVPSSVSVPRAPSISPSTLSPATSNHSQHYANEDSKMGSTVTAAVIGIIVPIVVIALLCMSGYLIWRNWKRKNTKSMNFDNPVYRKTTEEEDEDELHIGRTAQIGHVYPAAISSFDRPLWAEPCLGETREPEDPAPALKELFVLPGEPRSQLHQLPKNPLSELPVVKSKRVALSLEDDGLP
The test is described as follows: Western blot, lysate of LRP8-transfected N2A cells, antibody at 1 µg/ml. From the text: The two lines of hybridomas described above develop antibodies that recognize both the entire protein LRP8 and its different C-terminal fragments. […] I.D. 5 and 9 with a cysteine at the C-terminus are able to produce antibodies that recognize both the protein LRP8 as such, and the fragments of 18-25 kDa, which are substrates of γ-secretase and different shorter fragments of 8-16 kDa, collectively defined as LICDs-derived intracellular domain LRP8, similar to the AICDs fragments derived from the cleavage of AβPP by γ-secretase or by other proteases such as those previously specified. The polyclonal antibodies (rabbit) GS1 and GS2 were made using SEQ I.D. 5 and SEQ I.D. 9, respectively. […] In lane 8 there is a negative control whereas in lane 9 the hybridization was performed using a commercial antibody vs LRP8 (Sigma Aldrich Cat No. SAB1306331) as a positive control. All the antibodies were used at the final concentration of 1 µg/ml. It is therefore clear that both the polyclonal antibodies and the antibodies of clones of hybridomas according to the present invention are able to identify not only the full-length protein LRP8 and the fragments from 18-25 kDa, but also advantageously the fragments 8-16 kDa, as indicated by the boxes in FIG. 3. […]
A general note: In western blotting, separated proteins are transferred to a membrane and probed.

B1: monoclonal antibody of hybridoma 25F7F1 (antibody, V domains shown)
VH: EVQLQQSGPVLVKPGASVKMSCKASGYKFTDHFMNWVKKNHGKSLEWIGVINPYNGGTRLNPKFKGKATLTVDKSSSTVYMELNSLTFEDSAVYYCARETIDLAWFAYWGQGTLVTVSA
VL: DVLMTQTPPSLPVTLGDQASISCRSSQSIVYSNGKTYLEWYLQKPGQSPKLLMYKVSNRFSGVPDRFSGSGSGTDFTLKISSVEAEDLGIYYCFQGSHVPLTFGAGTKLELK
notes: Mouse (BALB/c) hybridoma monoclonal; also called antibody produced by 25F7F1 mouse hybridomas
B1: the binding result was “binds”.
